# Source: patent publication US20230055711A1 (BIOSION, published 2023)
# Read-outs that look alike come from different tables or passages of the source.
# T1: human BCMA on U266 cells (human, UniProt Q02223 1-184)
# T1 construct: whole, on cells; Endogenous protein of the cell line; also called human BCMA on the cell surface; U266 cells expressing human BCMA
# T1 sequence (looked up): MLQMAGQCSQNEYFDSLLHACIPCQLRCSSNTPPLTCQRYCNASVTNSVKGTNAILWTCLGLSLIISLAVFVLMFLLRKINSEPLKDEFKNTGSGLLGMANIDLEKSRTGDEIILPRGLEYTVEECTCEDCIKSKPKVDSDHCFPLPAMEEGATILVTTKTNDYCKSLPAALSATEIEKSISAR
# T2: human BCMA on 293F-BCMA cells (human, UniProt Q02223 1-184)
# T2 construct: Stably expressed on 293F cells prepared in house; also called 293F cells expressing human BCMA; Full length human BCMA
# T2 sequence: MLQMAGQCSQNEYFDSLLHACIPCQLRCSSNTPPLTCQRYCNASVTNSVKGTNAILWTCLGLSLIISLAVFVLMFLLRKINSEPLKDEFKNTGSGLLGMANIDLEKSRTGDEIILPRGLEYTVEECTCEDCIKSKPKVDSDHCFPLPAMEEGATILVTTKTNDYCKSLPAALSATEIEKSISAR
# Legend:
# [1] = target: recombinant human BCMA-his protein (Acro biosystems, Cat #BCA-H522Y) (human) (UniProt Q02223); experiment: competitive ELISA: antibody pre-mixed with biotin-labeled human BCMA-his, competitor coated BCMA BM1 (self-competition)
# [2] = target: recombinant human BCMA-his protein (Acro biosystems, Cat #BCA-H522Y) (human) (UniProt Q02223); experiment: competitive ELISA: coated human BCMA-his, blocked ligand biotin-labeled BAFF-Fc
# [3] = target: recombinant human BCMA-his protein (Acro biosystems, Cat #BCA-H522Y) (human) (UniProt Q02223); experiment: BLI Octet RED96, antibody on AHC sensor, BCMA-his in solution
# [4] = target: recombinant human BCMA-his protein (Acro biosystems, Cat #BCA-H522Y) (human) (UniProt Q02223); experiment: capture ELISA: antibody captured on the plate, biotin-labeled human BCMA-his detected with streptavidin-HRP
# [5] = target: recombinant human BCMA-his protein (Acro biosystems, Cat #BCA-H522Y) (human) (UniProt Q02223); experiment: as above; remark: listed apart in the source
# [6] = target: recombinant human BCMA-his protein (Acro biosystems, Cat #BCA-H522Y) (human) (UniProt Q02223); experiment: SPR Biacore, antibody captured by anti-human IgG on CM5, BCMA-his flowed
# [7] = target: recombinant human BCMA-his protein (Acro biosystems, Cat #BCA-H522Y) (human) (UniProt Q02223); experiment: SPR Biacore T200, antibody captured on Protein G chip, BCMA-his flowed
# [8] = target: recombinant human BCMA-his protein (Acro biosystems, Cat #BCA-H522Y) (human) (UniProt Q02223); experiment: competitive ELISA: antibody pre-mixed with biotin-labeled human BCMA-his, competitor coated BCMA BM1 (self-competition); remark: listed apart in the source
# [9] = target: recombinant human BCMA-his protein (Acro biosystems, Cat #BCA-H522Y) (human) (UniProt Q02223); experiment: competitive ELISA: coated human BCMA-his, blocked ligand biotin-labeled BAFF-Fc; remark: listed apart in the source
# [10] = target: recombinant human BCMA-his protein (Acro biosystems, Cat #BCA-H522Y) (human) (UniProt Q02223); experiment: SPR Biacore, antibody captured on CM5 chip, BCMA-his flowed
# human BCMA on U266 cells = target: T1, human BCMA on U266 cells; experiment: cell based binding FACS on U266 cells, MFI
# [11] = target: recombinant human BCMA-his protein (Acro biosystems, Cat #BCA-H522Y) (human) (UniProt Q02223); experiment: SPR Biacore T200, antibody captured by anti-mouse IgG on CM5, BCMA-his flowed
# [12] = target: T2, human BCMA on 293F-BCMA cells; experiment: cell based binding FACS on 293F cells expressing human BCMA, MFI
# [13] = target: recombinant human BCMA-his protein (Acro biosystems, Cat #BCA-H522Y) (human) (UniProt Q02223); experiment: competitive ELISA: antibody pre-mixed with biotin-labeled human BCMA-his, competitor coated BCMA BM1
# [14] = target: T3, cynomolgus BCMA-his protein (Acro biosystems, Cat #BCA-052H7) (cynomolgus monkey, UniProt A0A2K5UD97 1-53); experiment: indirect ELISA on coated cynomolgus BCMA-his
# T3 construct: Bought; also called cynomolgus monkey BCMA protein; not shown: his tag
# T3 sequence (A0A2K5UD97 entry or part of it): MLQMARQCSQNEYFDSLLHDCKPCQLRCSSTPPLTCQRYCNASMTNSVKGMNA
# [15] = target: recombinant human BCMA-his protein (Acro biosystems, Cat #BCA-H522Y) (human) (UniProt Q02223); experiment: competitive ELISA: antibody pre-mixed with biotin-labeled human BCMA-his, competitor coated BCMA BM1; remark: listed apart in the source
molecule,measurement,setting,value
"BCMA BM1, full-length antibody containing the BCMA-binding portion of GSK2857916",IC50,[1],2.89 nM
same,IC50,[2],10.7 nM
same,Kd,[3],0.436 nM
same,koff,[3],0.000125 s⁻¹
same,kon,[3],286000 M⁻¹ s⁻¹
same,EC50,[4],0.569 nM
same,EC50,[5],1.11 nM
same,Kd,[6],0.578 nM
same,koff,[6],0.000141 s⁻¹
same,kon,[6],244000 M⁻¹ s⁻¹
same,Kd,[7],0.742 nM
same,koff,[7],0.000245 s⁻¹
same,kon,[7],330000 M⁻¹ s⁻¹
same,IC50,[8],2.64 nM
same,IC50,[9],12.6 nM
"mouse anti-BCMA monoclonal antibody B1H2 (antibody, V domains shown, Hybridoma-derived mouse mAb purified on Protein A; also called Mouse B1H2; mouse antibody B1H2) VH: EVQLQQSGPELVKPGASVKMSCKASGYTLTNYVMHWMKQKPGQGLEWIGFIIPFNDGTKYNEHFKGKATLTSDKSSNTAYMVLSSLTSEDSAVYYCARYDFEGYFDVWGAGTTVTVSS VL: DIQMTQTTSSLSASLGDRVTISCSASQDITNFLNWYQQKPDGTVKLLIYSTSRLHSGVPSRFSGSGSGTDYSLTISNLEPEDIATYYCQQYSNLPWTFGGGTNLEIK",IC50,[2],6.09 nM
same,EC50,[4],0.177 nM
same,Kd,[10],0.0757 nM
same,koff,[10],0.000783 s⁻¹
same,kon,[10],1.03e+07 M⁻¹ s⁻¹
same,EC50,human BCMA on U266 cells,0.885 nM
same,EC50,[5],0.702 nM
same,Kd,[11],0.203 nM
same,koff,[11],0.0011 s⁻¹
same,kon,[11],5.42e+06 M⁻¹ s⁻¹
same,IC50,[9],8.28 nM
same,EC50,[12],0.613 nM
same,IC50,[13],1.03 nM
same,EC50,[14],31.4 nM
same,IC50,[15],0.282 nM
